Results reported in article PMC9902655.
Several values for one entry are separate records, joined by “and”; a condition that tells them apart may be missing. Equal values may be shown once.

Biological target: human adiponectin (ADPN) from egg white of OVA ADPN knock-in chickens (human) (UniProt Q15848)
Assay: non-reducing SDS-PAGE and Western blot; crude egg white of KI hens 0090 and 0141, diluted, in RIPA buffer and Laemmli sample buffer, 95°C 5 min, 10% gel, non-reducing; anti-adiponectin blot; under reducing conditions the multimer bands decreased and the monomer band increased

stoichiometry N: 3 and 6
Substance: human adiponectin (ADPN) from egg white of OVA ADPN knock-in chickens (from UniProt Q15848 19-244) (natural protein)
